{
  "source": "paper PMC12293770",
  "about": "“Mechanistic Insights into the Bornyl Diphosphate Synthase from Lavandula angustifolia” (Current Issues in Molecular Biology, 2025)",
  "proteins": {"B1": {"name": "LaBPPS (WT) (Lavandula angustifolia subsp. angustifolia) (protein)", "chain": "MTAARSFMAINSNMTTDHLHKFGKKNLEFGQGYSCNNASPMRLRPCCSLKLSTNAESQLDSTRRSGMYKPTLWDFDRIQSLNSVYTEEKYSTRACDLIQQVKKLLEESDWFRQLQLIDDLQRLGLSYRFDDEINLILNTIYFEKKFCEKEMDLYSTSLAFRLLRQHGLKVSQEVFDCFKNEEGDFEARLGDETNGILEMCEASFLATEGEETLELARLFTTNILQKKLDDERNELLIMDDYLRTLIRHSLDLPLYWRVQRPSARWFIEAYATRSDMNPIMLELAKLDFNIVQATHQEELKQVSRWWKESRLAEKLPFARDRVVENYLWNRGMLFPPQYGYPRIMNAKLFVLITVLDDIYDVYGTLEETQLFTNLITRWDVEAIGQLPEYMRICYMAIDNNINELAYEVLKQHGLLIIQDLRKFWADLCVAYGKEAEWYYTGYKPTLEEYLEVAWVSISAHLILGYMFFLTSNPIEKEASQSLSNYHNIIRNSAMVLRLADDLGTSPYEMQRGDVPKAVECYMNENGASTEEAREYVKHLLREVWKETNGERFKESPFTPSFMRICADLGRMAQFMYQHGDGHGIRNLQMEDRIQSLIFEPIV", "notes": "full-length, codon-optimised gene, pHXGWA, E. coli Rosetta (DE3) pLysS, Talon resin, thrombin-cleaved; monomer by DLS"}, "B2": {"name": "∆59–74 (Lavandula angustifolia subsp. angustifolia; DEL59-74) (protein)", "chain": "MTAARSFMAINSNMTTDHLHKFGKKNLEFGQGYSCNNASPMRLRPCCSLKLSTNAESQFDRIQSLNSVYTEEKYSTRACDLIQQVKKLLEESDWFRQLQLIDDLQRLGLSYRFDDEINLILNTIYFEKKFCEKEMDLYSTSLAFRLLRQHGLKVSQEVFDCFKNEEGDFEARLGDETNGILEMCEASFLATEGEETLELARLFTTNILQKKLDDERNELLIMDDYLRTLIRHSLDLPLYWRVQRPSARWFIEAYATRSDMNPIMLELAKLDFNIVQATHQEELKQVSRWWKESRLAEKLPFARDRVVENYLWNRGMLFPPQYGYPRIMNAKLFVLITVLDDIYDVYGTLEETQLFTNLITRWDVEAIGQLPEYMRICYMAIDNNINELAYEVLKQHGLLIIQDLRKFWADLCVAYGKEAEWYYTGYKPTLEEYLEVAWVSISAHLILGYMFFLTSNPIEKEASQSLSNYHNIIRNSAMVLRLADDLGTSPYEMQRGDVPKAVECYMNENGASTEEAREYVKHLLREVWKETNGERFKESPFTPSFMRICADLGRMAQFMYQHGDGHGIRNLQMEDRIQSLIFEPIV", "notes": "internal deletion of residues 59-74; E. coli, Talon resin, thrombin-cleaved"}, "B3": {"name": "∆1–74 (Lavandula angustifolia subsp. angustifolia) (protein)", "chain": "FDRIQSLNSVYTEEKYSTRACDLIQQVKKLLEESDWFRQLQLIDDLQRLGLSYRFDDEINLILNTIYFEKKFCEKEMDLYSTSLAFRLLRQHGLKVSQEVFDCFKNEEGDFEARLGDETNGILEMCEASFLATEGEETLELARLFTTNILQKKLDDERNELLIMDDYLRTLIRHSLDLPLYWRVQRPSARWFIEAYATRSDMNPIMLELAKLDFNIVQATHQEELKQVSRWWKESRLAEKLPFARDRVVENYLWNRGMLFPPQYGYPRIMNAKLFVLITVLDDIYDVYGTLEETQLFTNLITRWDVEAIGQLPEYMRICYMAIDNNINELAYEVLKQHGLLIIQDLRKFWADLCVAYGKEAEWYYTGYKPTLEEYLEVAWVSISAHLILGYMFFLTSNPIEKEASQSLSNYHNIIRNSAMVLRLADDLGTSPYEMQRGDVPKAVECYMNENGASTEEAREYVKHLLREVWKETNGERFKESPFTPSFMRICADLGRMAQFMYQHGDGHGIRNLQMEDRIQSLIFEPIV", "notes": "N-terminal truncation, residues 1-74 deleted; E. coli, Talon resin, thrombin-cleaved"}, "B4": {"name": "∆1–58 (Lavandula angustifolia subsp. angustifolia) (protein)", "chain": "LDSTRRSGMYKPTLWDFDRIQSLNSVYTEEKYSTRACDLIQQVKKLLEESDWFRQLQLIDDLQRLGLSYRFDDEINLILNTIYFEKKFCEKEMDLYSTSLAFRLLRQHGLKVSQEVFDCFKNEEGDFEARLGDETNGILEMCEASFLATEGEETLELARLFTTNILQKKLDDERNELLIMDDYLRTLIRHSLDLPLYWRVQRPSARWFIEAYATRSDMNPIMLELAKLDFNIVQATHQEELKQVSRWWKESRLAEKLPFARDRVVENYLWNRGMLFPPQYGYPRIMNAKLFVLITVLDDIYDVYGTLEETQLFTNLITRWDVEAIGQLPEYMRICYMAIDNNINELAYEVLKQHGLLIIQDLRKFWADLCVAYGKEAEWYYTGYKPTLEEYLEVAWVSISAHLILGYMFFLTSNPIEKEASQSLSNYHNIIRNSAMVLRLADDLGTSPYEMQRGDVPKAVECYMNENGASTEEAREYVKHLLREVWKETNGERFKESPFTPSFMRICADLGRMAQFMYQHGDGHGIRNLQMEDRIQSLIFEPIV", "notes": "N-terminal truncation, residues 1-58 deleted; E. coli, Talon resin, thrombin-cleaved"}, "B5": {"name": "∆578–602 (Lavandula angustifolia subsp. angustifolia) (protein)", "chain": "MTAARSFMAINSNMTTDHLHKFGKKNLEFGQGYSCNNASPMRLRPCCSLKLSTNAESQLDSTRRSGMYKPTLWDFDRIQSLNSVYTEEKYSTRACDLIQQVKKLLEESDWFRQLQLIDDLQRLGLSYRFDDEINLILNTIYFEKKFCEKEMDLYSTSLAFRLLRQHGLKVSQEVFDCFKNEEGDFEARLGDETNGILEMCEASFLATEGEETLELARLFTTNILQKKLDDERNELLIMDDYLRTLIRHSLDLPLYWRVQRPSARWFIEAYATRSDMNPIMLELAKLDFNIVQATHQEELKQVSRWWKESRLAEKLPFARDRVVENYLWNRGMLFPPQYGYPRIMNAKLFVLITVLDDIYDVYGTLEETQLFTNLITRWDVEAIGQLPEYMRICYMAIDNNINELAYEVLKQHGLLIIQDLRKFWADLCVAYGKEAEWYYTGYKPTLEEYLEVAWVSISAHLILGYMFFLTSNPIEKEASQSLSNYHNIIRNSAMVLRLADDLGTSPYEMQRGDVPKAVECYMNENGASTEEAREYVKHLLREVWKETNGERFKESPFTPSFMRICADLGRMAQFMYQ", "notes": "C-terminal truncation, residues 578-602 deleted; E. coli, Talon resin, thrombin-cleaved"}},
  "experiment_in_all_cases": "GC-MS of hexane phase, Hanes-Woolf plot",
  "assay_type_in_all_cases": "biochemical, Lavandula angustifolia",
  "settings_in_all_cases": "25 mM Tris-HCl pH 7.5, 10 mM MgCl2, 1 mM MnCl2, 30 °C, 2 h",
  "key": {"[1]": {"substrate": "CC(C)=CCC/C(C)=C/COP(=O)(O)OP(=O)(O)O", "from_the_text": "GC-MS of hexane phase, Hanes-Woolf plot on LaBPPS (WT)"}, "[2]": {"substrate": "CC(C)=CCC/C(C)=C/COP(=O)(O)OP(=O)(O)O", "from_the_text": "GC-MS of hexane phase, Hanes-Woolf plot on ∆59–74", "remark": "listed apart in the source"}, "[3]": {"substrate": "CC(C)=CCC/C(C)=C/COP(=O)(O)OP(=O)(O)O", "from_the_text": "GC-MS of hexane phase, Hanes-Woolf plot on ∆1–74", "remark": "listed apart in the source"}, "[4]": {"substrate": "CC(C)=CCC/C(C)=C/COP(=O)(O)OP(=O)(O)O", "from_the_text": "GC-MS of hexane phase, Hanes-Woolf plot on ∆1–58", "remark": "listed apart in the source"}, "[5]": {"substrate": "CC(C)=CCC/C(C)=C/COP(=O)(O)OP(=O)(O)O", "from_the_text": "GC-MS of hexane phase, Hanes-Woolf plot on ∆578–602", "remark": "listed apart in the source"}},
  "data": [
    {"protein": "B1", "values": [
      {"measurement": "Km", "setting": "[1]", "result": "29.37 ± 1.21", "unit": "µM"},
      {"measurement": "kcat", "setting": "[1]", "result": "0.104 ± 0.00783", "unit": "s⁻¹"}
    ]},
    {"protein": "B2", "values": [
      {"measurement": "Km", "setting": "[2]", "result": "38.49 ± 2.58", "unit": "µM"},
      {"measurement": "kcat", "setting": "[2]", "result": "0.0562 ± 0.007", "unit": "s⁻¹"}
    ]},
    {"protein": "B3", "values": [
      {"measurement": "Km", "setting": "[3]", "result": "41.72 ± 2.15", "unit": "µM"},
      {"measurement": "kcat", "setting": "[3]", "result": "0.0532 ± 0.002", "unit": "s⁻¹"}
    ]},
    {"protein": "B4", "values": [
      {"measurement": "Km", "setting": "[4]", "result": "28.12 ± 1.75", "unit": "µM"},
      {"measurement": "kcat", "setting": "[4]", "result": "0.113 ± 0.00583", "unit": "s⁻¹"}
    ]},
    {"protein": "B5", "values": [
      {"measurement": "Km", "setting": "[5]", "result": "14.83 ± 1.09", "unit": "µM"},
      {"measurement": "kcat", "setting": "[5]", "result": "0.195 ± 0.0143", "unit": "s⁻¹"}
    ]}
  ]
}
